Laboratory results taken from US20250213686A1, “COMPOSITIONS AND METHODS FOR ENGINEERING TREG CELLS FOR TREATMENT OF DIABETES” (Seattle Children's Hospital (dba Seattle Children's …, priority 2021, published 2025).
Each block holds one molecule with its values, some of them ahead of it.

Columns and labels:
Assay type in all cases: cell-based, human
[1] = test system: IGRP 305-324 or IGRP 241-260 peptide presented by HLA-DR4-expressing K562 cells; test: Cytokine production of TCR-transduced CD4+ T cells to cognate peptide; settings: 5 hours stimulation with cognate peptide, day 14
Experimental: (§1) FIGS. 29A-29E show editing of CD4+ T cells to express one of a panel of TCRs, and phenotypic characterization of edited cells.
On day 14, transduced CD4+ T cells were stimulated for 5 hours with cognate IGRP peptide in the presence of transduced K562 cells, and the production of cytokines IFN-γ and TNF-α to evaluate T cell activation (FIG. 29D).

[2] = test system: IGRP 305-324 or IGRP 241-260 peptide presented by HLA-DR4-expressing K562 cells; test: Activation marker response of TCR-transduced CD4+ T cells to cognate peptide; settings: for cognate peptide concentration required for maximal surface marker expression: relative to cells expressing T1D5-1; for upregulation of functional markers CD154, CD69 and CD137: stimulation with cognate peptide overnight, day 8
Experimental: as §1
FIGS. 30A-30B show dose response of T1D TCR-expressing CD4+ T cells to stimulation with IGRP 305-324 peptide. Cells were cultured in the presence of HLA-DR4-expressing K562 cells for a 20 hours, and analyzed by flow cytometry. […] Dashed lines=50% maximum response of each cell population (by donor).
CD4+ cells were thawed and stimulated with anti-CD3/CD28 Dynabeads in vitro (day 0). On day 1 post-thawing, cells were inoculated with a lentivirus encoding a T1D2, T1D5-1, or T1D4 TCR (day 1). On day 3 post-thaw, Dynabeads were removed. In parallel, artificial antigen-presenting cells were generated by transducing K562 cells with a lentivirus encoding an HLA-DR4 capable of presenting IGRP 305-324 or IGRP 241-260. On day 7 post-thaw, transduced CD4+ T cells were stimulated by addition of a given amount of cognate IGRP peptide in the presence of transduced K562 cells and culture overnight. On day 8 post-thaw, expression of activation-associated markers CD69, CD137, and CD154 (FIG. 29B).
In another experiment, CD4+ T cells transduced with a lentivirus encoding T1D2 TCR or control TCR (ZNT266) were cultured in a 3:1 ratio with K562 cells pulsed with IGRP 305-324 peptide at a range of concentrations, as described in the preceding paragraph. After 20 hours of co-culture, expression of surface markers CD154 and CD137 were analyzed by flow cytometry, to quantify sensitivity of T1D2 TCR-expressing cells to cognate peptide IGRP 305-324.

[3] = test system: cognate peptide (IGRP305-324, IGRP241-260, PPI76-90) and APC; test: Peptide dose response (functional avidity) of TCR-transduced CD4+ T cells; settings: for IGRP305-324 peptide concentration at which proliferation was reached: T1D5-1: similar to about 70% proliferation, T1D2: proliferation only at this concentration
Description: FIG. 39A depicts a graph showing peptide dose response of T cells expressing T1D2, T1D4, or PPI76 TCR. CD4+ T cells transduced with T1D2, T1D4, or PPI76 TCR were co-cultured with APC in the presence of various concentration of their cognate peptide, IGRP305-324, IGRP241-260, PPI76-90, respectively for 4 days. Representative of three independent experiments.
FIG. 39C depicts a graph showing peptide dose response of T cells expressing T1D2, T1D5-1, or T1D5-2 TCR. CD4+ T cells transduced with T1D2, T1D5-1 or T1D5-2 TCR were co-cultured with APC in the presence of various concentration of their cognate peptide, IGRP305-324 for 4 days. Representative of three independent experiments. For dose response of T cells in A and C, T cells were labeled with CTV before the co-culture and cell proliferation was measured by CTV dilution.
Therefore, these unique features were used as way to begin to explore the impact of TCR affinity on islet-specific EngTregs function. […] We measured proliferation of polyclonal islet-specific Teff in the presence of islet-specific peptides and mDC and EngTregs with T1D2, T1D4 or PPI76. The data were normalized by suppressive activity obtained from suppression assay set up in parallel using CD3/CD28 beads (FIG. 39G). This latter assay provided a baseline control for EngTreg function, as this activation method is not impacted by TCR avidity. […] We then compared T1D2, T1D5-1 and T1D5-2, each of which recognize the same cognate peptide, IGRP305-324, in the context of HLA-DR0401 (Table E6-1) (31). […] Similarly, we measured suppressive capacity of EngTregs expressing T1D2, T1D5-1, or T1D5-2 on proliferation of polyclonal islet Teff in response to islet-specific peptides.

[4] = test system: T1D2 TCR-expressing CD4+ T cells; test: Alanine-substituted and potential off-target peptide stimulation of T1D2 TCR cells
Experimental: FIGS. 31A-31D show tolerance of T1D2 to substitutions in IGRP 305-324 peptide. FIGS. 31A and 31B show activation of T1D2 TCR-expressing CD4+ T cells, as measured by CD154 expression intensity (FIG. 31A) or % CD137-expressing cells (FIG. 31B) in the presence of antigen-presenting cells pulsed with one of a panel of alanine-substituted peptides. T cells were cultured for 20 hours in the presence of HLA-DR4-expressing K562 cells that had been pulsed with IGRP 305-324 peptide, or one of a panel of peptides having an alanine substitution at different positions, and analyzed by flow cytometry. FIGS. 31C and 31D show activation of T1D2 TCR-expressing CD4+ T cells, as measured by CD154 expression intensity (FIG. 31C) or % CD137-expressing cells (FIG. 31D) in the presence of antigen-presenting cells pulsed with one of a panel of potential off-target peptides derived from pathogens of human relevance. “Control” indicates CD4+ T cells expressing ZNT266 TCR. […]
After 20 hours of co-culture, expression of surface markers CD154 and CD137 (among CD3+CD4+ cells) were analyzed by flow cytometry, to quantify the potential for off-target activation of cells expressing T1D2 TCR. […]

[5] = IGRP 305-324, 20 hours co-culture, 3:1 with K562 cells

B1: T1D4 TCR: TCR specific to IGRP 241-260; TCRα SEQ ID NO: 19, TCRβ SEQ ID NO: 20 (protein)
alpha: MKSLRVLLVILWLQLSWVWSQKDQVFQPSTVASSEGAVVEIFCNHSVSNAYNFFWYLHFPGCAPRLLVKGSKPSQQGRYNMTYERFSSSLLILQVREADAAVYYCAVEDLNQAGTALIFGKGTTLSVSSNIQNPDPAVYQLRDSKSSDKSVCLFTDFDSQTNVSQSKDSDVYITDKTVLDMRSMDFKSNSAVAWSNKSDFACANAFNNSIIPEDTFFPSPGKGSFGAFAGCFLASGMARFCPELWSMMSKTPLIGGLG
beta: MGSRLLCWVLLCLLGAGPVKAGVTQTPRYLIKTRGQQVTLSCSPISGHRSVSWYQQTPGQGLQFLFEYFSETQRNKGNFPGRFSGRQFSNSRSEMNVSTLELGDSALYLCASSLALGQGNQQFFGPGTRLTVLEDLKNVFPPEVAVFEPSEAEISHTQKATLVCLATGFYPDHVELSWWVNGKEVHSGVSTDPQPLKEQPALNDSRYCLSSRLRVSATFWQNPRNHFRCQVQFYGLSENDEWTQDRAKPVTQIVSAEAWGRADCGFTSESYQQGVLSATILYEILLGKATLYAVLVSALVLMAMVKRKDSRG
IFN-γ and TNF-α production [1]: dose-dependent manner
cognate peptide concentration required for maximal surface marker expression [2]: Lower concentrations of cognate peptide were required
upregulation of functional markers CD154, CD69 and CD137 [2]: dose-dependent manner
cognate peptide concentration giving similar (more than 20%) proliferation [3]: 0.1 µg/mL

B2: T1D5-1 TCR: TCR specific to IGRP 305-324; TCRα SEQ ID NO: 29, TCRβ SEQ ID NO: 30 (protein)
alpha: MLLITSMLVLWMQLSQVNGQQVMQIPQYQHVQEGEDFTTYCNSSTTLSNIQWYKQRPGGHPVFLIQLVKSGEVKKQKRLTFQFGEAKKNSSLHITATQTTDVGTYFCAGQTGANNLFFGTGTRLTVIPYIQNPDPAVYQLRDSKSSDKSVCLFTDFDSQTNVSQSKDSDVYITDKTVLDMRSMDFKSNSAVAWSNKSDFACANAFNNSIIPEDTFFPSPGKGSFGAFAGCFLASGMARFCPELWSMMSKTPLIGGLG
beta: MGCRLLCCAVLCLLGAVPMETGVTQTPRHLVMGMTNKKSLKCEQHLGHNAMYWYKQSAKKPLELMFVYSLEERVENNSVPSRFSPECPNSSHLFLHLHTLQPEDSALYLCASSQEVGTVPNQPQHFGDGTRLSILEDLNKVFPPEVAVFEPSEAEISHTQKATLVCLATGFFPDHVELSWWVNGKEVHSGVSTDPQPLKEQPALNDSRYCLSSRLRVSATFWQNPRNHFRCQVQFYGLSENDEWTQDRAKPVTQIVSAEAWGRADCGFTSVSYQQGVLSATILYEILLGKATLYAVLVSALVLMAMVKRKDF
IFN-γ and TNF-α production [1]: dose-dependent manner
upregulation of functional markers CD154, CD69 and CD137 [2]: dose-dependent manner
IGRP305-324 peptide concentration at which proliferation was reached [3]: 1.0 µg/mL

EC50 of % CD137-expressing cells [2, 5]: 0.03 to 0.1 µg/mL
EC50 of CD154 expression [2, 5]: 0.1 to 0.3 µg/mL
B3: T1D2 TCR: TCR specific to IGRP 305-324, HLA-DR0401 restricted; TCRα SEQ ID NO: 9, TCRβ SEQ ID NO: 10 (protein)
alpha: MAMLLGASVLILWLQPDWVNSQQKNDDQQVKQNSPSLSVQEGRISILNCDYTNSMFDYFLWYKKYPAEGPTFLISISSIKDKNEDGRFTVFLNKSAKHLSLHIVPSQPGDSAVYFCAATRTSGTYKYIFGTGTRLKVLANIQNPDPAVYQLRDSKSSDKSVCLFTDFDSQTNVSQSKDSDVYITDKTVLDMRSMDFKSNSAVAWSNKSDFACANAFNNSIIPEDTFFPSPGKGSFGAFAGCFLASGMARFCPELWSMMSKTPLIGGLG
beta: MSISLLCCAAFPLLWAGPVNAGVTQTPKFRILKIGQSMTLQCTQDMNHNYMYWYRQDPGMGLKLIYYSVGAGITDKGEVPNGYNVSRSTTEDFPLRLELAAPSQTSVYFCASSPWGAGGTDTQYFGPGTRLTVLEDLKNVFPPEVAVFEPSEAEISHTQKATLVCLATGFYPDHVELSWWVNGKEVHSGVSTDPQPLKEQPALNDSRYCLSSRLRVSATFWQNPRNHFRCQVQFYGLSENDEWTQDRAKPVTQIVSAEAWGRADCGFTSESYQQGVLSATILYEILLGKATLYAVLVSALVLMAMVKRKDSRG
IFN-γ and TNF-α production [1]: dose-dependent manner
sensitivity to stimulation with cognate peptide IGRP 305-324 ([2]; compared to cells expressing ZNT266 TCR): substantially more sensitive
cognate peptide concentration required for maximal surface marker expression [2]: Lower concentrations of cognate peptide were required
upregulation of functional markers CD154, CD69 and CD137 [2]: dose-dependent manner
IGRP305-324 peptide concentration at which proliferation was reached [3]: 3 µg/mL
functional avidity ([3]; comparison of T1D2, T1D4 and PPI76 TCR): lowest functional avidity among the three TCRs
functional avidity ([3]; comparison of T1D2, T1D5-1 and T1D5-2 (same cognate peptide IGRP305-324)): lowest functional avidity
recognition of predicted potential off-target peptides derived from human pathogens [4]: does not recognize any
